Reference: patent US20140179896A1 (published 2014)
Positions count from the first letter of the chain named.

B1: A3 (designed binder)
chain: EVVAATPTSLLISWRHPHFPTRYYRITYGETGGNSPVQEFTVPLQPPTATISGLKPGVDYTITGYAVTDGWNGKMLSVPISINYRT
notes: 10Fn3 clone, Del 1-8
B2: 3′F2 PR4 (designed binder)
chain: B1 chain with D69L, W71K, G73D, K74H, M75E, S77L, V78T
notes: Del 1-8
B3: 3′G1 PR4 (designed binder)
chain: B1 chain with D69L, G70A, W71L, K74H, M75E, S77F, V78T
notes: Del 1-8
B4: 3′E5 PR4 (designed binder)
chain: B1 chain with D69V, G70A, N72D, K74R, M75E, S77F, V78T
notes: Del 1-8
B5: 3′F6 PR4 (designed binder)
chain: B1 chain with D69I, G70E, W71Q, N72S, K74L, M75Q, S77M, V78T
notes: Del 1-8
B6: 3′F3 PR4 (designed binder)
chain: B1 chain with D69L, W71H, G73D, K74R, M75E, S77L, V78T
notes: Del 1-8
B7: 3′H11 PR4 (designed binder)
chain: B1 chain with D69L, G70A, W71H, K74N, M75E, S77L, V78T
notes: Del 1-8
B8: 3′G7 PR4 (designed binder)
chain: B1 chain with D69E, W71Q, G73D, K74Q, M75L, S77F, V78I
notes: Del 1-8
B9: 3′F1 PR4 (designed binder)
chain: B1 chain with D69V, G70A, W71Q, N72D, K74H, M75F, S77Y, V78T
notes: Del 1-8
B10: 4′B8 PR4 (designed binder)
chain: B1 chain with D69V, G70A, W71Q, G73D, K74H, M75K, S77F, V78I
notes: Del 1-8
B11: 3′H1 PR4 (designed binder)
chain: B1 chain with D69F, G70A, W71Q, G73D, K74H, M75Q, S77F, V78T
notes: Del 1-8
B12: 3′G2 PR4 (designed binder)
chain: B1 chain with D69L, G70A, W71Q, K74H, M75E, S77I, V78T
notes: Del 1-8
B13: 4′H5 PR4 (designed binder)
chain: B1 chain with D69L, G70A, W71Q, K74H, M75E, S77F, V78T
notes: Del 1-8
B14: 3′H8 PR4 (designed binder)
chain: B1 chain with D69V, W71H, G73D, K74R, M75E, S77I, V78T
notes: Del 1-8
B15: 4′B7 PR4 (designed binder)
chain: B1 chain with D69V, G70A, W71Q, G73N, K74H, M75E, S77L, V78T
notes: Del 1-8
B16: 4′G4 PR4 (designed binder)
chain: B1 chain with D69V, G70A, W71Q, G73D, K74R, M75E, S77L, V78T
notes: Del 1-8
B17: 3′H10 PR4 (designed binder)
chain: B1 chain with D69W, G70A, G73D, K74H, M75E, S77M, V78T
notes: Del 1-8
B18: 3′E11 PR4 (designed binder)
chain: B1 chain with D69V, W71P, N72H, G73D, K74R, M75E, S77L, V78T
notes: Del 1-8
B19: 3′G10 PR4 (designed binder)
chain: B1 chain with D69L, G70T, W71H, G73D, K74H, M75E, S77L, V78T
notes: Del 1-8
B20: 4B11 PR3 (designed binder)
chain: B1 chain with D69V, W71Q, G73N, K74H, M75E, S77I, V78T
notes: Del 1-8
B21: 4′B3 PR4 (designed binder)
chain: B1 chain with D69M, G70A, W71Q, G73N, K74R, M75E, S77L, V78T
notes: Del 1-8
B22: 4C9 PR3 (designed binder)
chain: B1 chain with D69L, G70A, W71Q, G73D, K74H, M75E, S77L, V78T
notes: Del 1-8
B23: 3′E1 PR4 (designed binder)
chain: B1 chain with D69V, G70A, W71P, K74H, M75E, S77F, V78T
notes: Del 1-8
B24: 3′H3 PR4 (designed binder)
chain: B1 chain with D69L, W71L, G73D, K74R, M75E, S77M, V78T
notes: Del 1-8
B25: B11 (designed binder)
chain: B1 chain with D69V, G70E, W71R, K74R, M75E, S77K, V78T
notes: 10Fn3 clone, Del 1-8
B26: 4′H7 PR4 (designed binder)
chain: B1 chain with D69L, G70A, W71H, G73D, K74H, M75E, S77L, V78T
notes: Del 1-8
B27: 4′C9 PR4 (designed binder)
chain: B1 chain with D69L, W71P, G73D, K74H, M75E, S77M, V78T
notes: Del 1-8
B28: 3′F9 PR4 (designed binder)
chain: B1 chain with D69L, W71P, G73D, K74R, M75E, S77M, V78T
notes: Del 1-8
B29: 4′A5 PR4 (designed binder)
chain: B1 chain with D69L, G70A, W71Q, G73D, K74H, M75E, S77L, V78T
notes: Del 1-8
B30: 3′D9 PR4 (designed binder)
chain: B1 chain with D69G, G70Y, W71Y, G73D, K74R, M75E, S77L, V78T
notes: Del 1-8
B31: 4F4 PR3 (designed binder)
chain: B1 chain with D69L, G70A, W71Q, G73D, K74R, M75E, S77I, V78T
notes: Del 1-8
B32: 4′H12 PR4 (designed binder)
chain: B1 chain with D69V, G70A, W71H, G73D, K74H, M75E, S77L, V78T
notes: Del 1-8
B33: F12 (designed binder)
chain: B1 chain with W71R, K74H, M75E, S77M, V78T
notes: 10Fn3 clone, Del 1-8
B34: 4′C5 PR4 (designed binder)
chain: B1 chain with D69L, W71L, G73D, K74H, M75E, S77I, V78T
notes: Del 1-8
B35: 4′G12 PR4 (designed binder)
chain: B1 chain with D69V, G70A, G73D, K74H, M75E, L76I, S77Y, V78T
notes: Del 1-8
B36: 3′H9 PR4 (designed binder)
chain: B1 chain with D69H, W71P, N72Y, G73D, K74Q, M75V, S77L, V78T
notes: Del 1-8
B37: 3′E3 PR4 (designed binder)
chain: B1 chain with D69M, G70A, W71Q, N72Y, K74R, M75E, S77L, V78T
notes: Del 1-8
B38: 4H5 PR3 (designed binder)
chain: B1 chain with D69V, G70A, W71Q, K74H, M75E, S77I, V78T
notes: Del 1-8
B39: G1 (designed binder)
chain: B1 chain with D69E, W71R, K74R, M75E, S77M
notes: 10Fn3 clone, Del 1-8
B40: 4′D8 PR4 (designed binder)
chain: B1 chain with D69L, G70A, W71Q, K74H, M75E, S77Y, V78T
notes: Del 1-8
B41: 3′F12 PR4 (designed binder)
chain: B1 chain with D69L, G70S, W71Q, N72T, G73D, K74H, M75E, S77L, V78T
notes: Del 1-8
B42: 3′E9 PR4 (designed binder)
chain: B1 chain with D69V, G70E, W71Q, N72D, K74H, M75V, S77Y, V78I
notes: Del 1-8
B43: 3′G3 PR4 (designed binder)
chain: B1 chain with D69F, G70D, W71Q, N72S, G73D, K74H, M75E, S77L, V78T
notes: Del 1-8
B44: 4′E7 PR4 (designed binder)
chain: B1 chain with D69W, G70A, W71Q, G73D, K74H, M75E, S77L, V78T
notes: Del 1-8
B45: 4′D6 PR4 (designed binder)
chain: B1 chain with D69M, G70A, W71Q, G73D, K74H, M75E, S77M, V78T
notes: Del 1-8
B46: 4′B11 PR4 (designed binder)
chain: B1 chain with D69M, G70A, W71H, G73D, K74H, M75E, S77L, V78T
notes: Del 1-8
B47: 2′E4-PR4 (designed binder)
chain: VSDVPRDLEVVAATPTSLLISWRHPHFPTRYYRITYGETGGNSPVQEFTVPLQPPTATISGLKPGVDYTITGYAVTVHWNGHELMTPISINYRT
notes: WT N-terminus
B48: 2′C6-PR4 (designed binder)
chain: B47 chain with V77M, H78G, W79F, N80M, G81A, T86V
notes: WT N-terminus
B49: 2′H4-PR4 (designed binder)
chain: B47 chain with H78G, W79P, G81E, H82R, E83M
notes: WT N-terminus
B50: 2′D6-PR4 (designed binder)
chain: B47 chain with H78T, W79H, E83P
notes: WT N-terminus

Legend:
[1] = target: T1, mouse vascular endothelial growth factor receptor-2 Fc chimera (Flk-1-Fc) (mouse, UniProt P35918 20-762); experiment: radioactive equilibrium binding assay, 1 nM Flk-1-Fc, % of input bound
T1 construct: Bought from R&D Systems; also called mouse VEGFR-2; not shown: Fc part of the purchased chimera, not specified
Protocol: (§1) To prepare ³⁵S-labeled binding proteins for analysis, mRNA was prepared as described above for RNA-protein fusion production but the linker ligation step was omitted. The mRNA was expressed using rabbit reticulocyte lysate translation kit (Ambion) in the presence of ³⁵S-labeled Met at 30° C. for 1 hour. Expressed protein was purified on M2-agarose Flag beads (Sigma) as described above. This procedure produced the encoded protein without the nucleic acid tail. In a direct binding assay, VEGF-R2-Fc fusions in concentrations ranging from 0 to 200 nM were added to a constant concentration of the purified protein (0.2 or 0.5 nM) and incubated at 30° C. for 1 hour in buffer B. The receptor-binder complexes were captured using Protein A magnetic beads for another 10 minutes at room temperature using a Kingfisher™ The beads were washed with six reaction volumes of buffer B. The protein was eluted from the beads with 100 μL of 0.1 M KOH. […] of the reaction mixture and elution were dried onto a LumaPlate-96 (Packard) and the amount of ³⁵S on the plate was measured using a TopCount NXT instrument (Packard). The amount of fibronectin-based scaffold protein bound to the target was estimated as a percent of radioactivity eluted from Protein A magnetic beads compare to radioactivity in the reaction mixture. Nonspecific binding of fibronectin-based scaffold proteins to the beads was determined by measuring binding in the absence of KDR-Fc and represented less than 1-2% of the input. Specific binding was obtained through subtraction of nonspecific binding from total binding. Data was analyzed using the GraphPad Prizm software (GraphPad Software, Inc, San Diego, Calif.), fitted using a one site, non-linear binding equation.

[2] = target: T2, human vascular endothelial growth factor receptor-2 Fc chimera (KDR-Fc) (human, UniProt P35968 20-764); experiment: radioactive equilibrium binding assay, 1 nM KDR-Fc, % of input bound
T2 construct: range 1-764; also called human VEGFR-2; not shown: human IgG1 Fc
Protocol: as §1
T2 sequence (P35968 20-764 limits assumed, change not shown, form in doubt): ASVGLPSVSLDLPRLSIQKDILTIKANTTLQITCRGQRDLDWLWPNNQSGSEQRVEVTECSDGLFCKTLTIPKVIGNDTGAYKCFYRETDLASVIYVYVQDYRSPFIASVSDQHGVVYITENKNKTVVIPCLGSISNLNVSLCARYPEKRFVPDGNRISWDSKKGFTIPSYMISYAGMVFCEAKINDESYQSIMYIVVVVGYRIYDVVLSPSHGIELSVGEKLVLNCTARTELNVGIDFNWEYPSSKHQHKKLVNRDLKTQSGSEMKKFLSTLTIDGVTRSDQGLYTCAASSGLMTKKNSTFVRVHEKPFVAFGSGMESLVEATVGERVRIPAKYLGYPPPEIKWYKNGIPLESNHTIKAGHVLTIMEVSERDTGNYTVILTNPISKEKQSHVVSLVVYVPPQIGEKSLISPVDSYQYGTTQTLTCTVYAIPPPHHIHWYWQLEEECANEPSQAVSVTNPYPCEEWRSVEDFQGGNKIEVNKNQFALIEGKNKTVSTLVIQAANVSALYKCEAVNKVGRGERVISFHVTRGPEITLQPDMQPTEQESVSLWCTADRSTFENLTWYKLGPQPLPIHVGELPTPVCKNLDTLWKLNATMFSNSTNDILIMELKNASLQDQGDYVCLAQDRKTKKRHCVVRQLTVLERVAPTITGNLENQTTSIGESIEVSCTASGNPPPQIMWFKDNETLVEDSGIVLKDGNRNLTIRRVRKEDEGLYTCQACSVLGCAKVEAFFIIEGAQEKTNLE

[3] = target: T3, human vascular endothelial growth factor receptor-2 Fc chimera (KDR-Fc) (human, UniProt P35968 20-764); experiment: radioactive equilibrium binding, 1 nM KDR-Fc
T3 construct: range 1-764; also called human VEGFR-2; VEGF-R2-Fc; not shown: human IgG1 Fc
Protocol: as §1
T3 sequence (P35968 20-764 limits assumed, change not shown, form in doubt): as above

T1 sequence (P35918 20-762, change not shown): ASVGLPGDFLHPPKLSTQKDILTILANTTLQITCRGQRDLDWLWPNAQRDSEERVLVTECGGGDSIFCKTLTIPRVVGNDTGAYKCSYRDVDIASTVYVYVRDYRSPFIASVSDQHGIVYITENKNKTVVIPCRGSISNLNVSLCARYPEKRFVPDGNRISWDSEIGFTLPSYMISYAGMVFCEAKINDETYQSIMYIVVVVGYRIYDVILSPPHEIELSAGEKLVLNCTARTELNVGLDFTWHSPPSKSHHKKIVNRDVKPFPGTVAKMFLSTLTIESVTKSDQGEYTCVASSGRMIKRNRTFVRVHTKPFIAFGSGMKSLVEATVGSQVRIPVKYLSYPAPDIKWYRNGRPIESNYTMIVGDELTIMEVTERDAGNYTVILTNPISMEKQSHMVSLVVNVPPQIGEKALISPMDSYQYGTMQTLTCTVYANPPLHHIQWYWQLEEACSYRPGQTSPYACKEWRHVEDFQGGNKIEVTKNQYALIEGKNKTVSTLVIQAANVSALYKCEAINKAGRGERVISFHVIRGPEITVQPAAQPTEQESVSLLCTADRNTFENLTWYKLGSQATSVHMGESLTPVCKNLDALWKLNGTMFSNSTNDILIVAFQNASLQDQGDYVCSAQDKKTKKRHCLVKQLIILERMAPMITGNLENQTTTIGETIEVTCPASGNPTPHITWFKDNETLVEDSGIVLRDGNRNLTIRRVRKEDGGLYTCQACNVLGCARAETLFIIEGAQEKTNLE

Binder | Binding to 1 nM KDR, % [3] [%] | other results
B1 |  | Binding to 1 nM Flk-1, % [1]: 7%; Binding to 1 nM KDR, % [2]: 33%
B2 | 29 | 
B3 | 19 | 
B4 | 23 | 
B5 | 24 | 
B6 | 37 | 
B7 | 39 | 
B8 | 19 | 
B9 | 31 | 
B10 | 20 | 
B11 | 22 | 
B12 | 15 | 
B13 | 18 | 
B14 | 20 | 
B15 | 16 | 
B16 | 19 | 
B17 | 14 | 
B18 | 17 | 
B19 | 30 | 
B20 | 15 | 
B21 | 42 | 
B22 | 16 | 
B23 | 32 | 
B24 | 36 | 
B25 |  | Binding to 1 nM KDR, % [2]: 29%

Binder | Binding to 1 nM KDR, % [3] [%] | other results
B26 | 29 | 
B27 | 29 | 
B28 | 18 | 
B29 | 16 | 
B30 | 30 | 
B31 | 15 | 
B32 | 17 | 
B33 |  | Binding to 1 nM KDR, % [2]: 17%
B34 | 27 | 
B35 | 21 | 
B36 | 24 | 
B37 | 41 | 
B38 | 14 | 
B39 |  | Binding to 1 nM KDR, % [2]: 22%
B40 | 26 | 
B41 | 17 | 
B42 | 44 | 
B43 | 31 | 
B44 | 17 | 
B45 | 14 | 
B46 | 25 | 
B47 | 22 | 
B48 | 16 | 
B49 | 17 | 
B50 | 22 | 
